Reference: patent US20230407367, “INTRINSICALLY DISORDERED PROTEINS FOR EXTRACTION OF NUCLEIC ACIDS” (published 2023)

T1: H-20 His-ELP (synthetic construct)
T1 chain: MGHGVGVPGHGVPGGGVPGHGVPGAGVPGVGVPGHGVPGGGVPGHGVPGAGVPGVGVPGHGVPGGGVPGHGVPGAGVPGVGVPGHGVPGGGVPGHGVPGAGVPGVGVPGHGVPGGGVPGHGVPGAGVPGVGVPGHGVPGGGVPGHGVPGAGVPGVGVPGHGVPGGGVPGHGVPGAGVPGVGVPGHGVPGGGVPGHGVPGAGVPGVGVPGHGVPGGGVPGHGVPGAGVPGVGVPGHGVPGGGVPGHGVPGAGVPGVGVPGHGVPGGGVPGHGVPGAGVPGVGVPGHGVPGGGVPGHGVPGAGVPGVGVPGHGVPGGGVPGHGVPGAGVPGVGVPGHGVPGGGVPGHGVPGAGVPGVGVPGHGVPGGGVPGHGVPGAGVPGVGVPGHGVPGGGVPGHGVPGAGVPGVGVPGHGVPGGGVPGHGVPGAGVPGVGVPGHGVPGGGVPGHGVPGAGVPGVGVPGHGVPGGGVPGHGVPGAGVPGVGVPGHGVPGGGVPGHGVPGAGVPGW

T2: H-24 His-ELP (synthetic construct)
T2 chain: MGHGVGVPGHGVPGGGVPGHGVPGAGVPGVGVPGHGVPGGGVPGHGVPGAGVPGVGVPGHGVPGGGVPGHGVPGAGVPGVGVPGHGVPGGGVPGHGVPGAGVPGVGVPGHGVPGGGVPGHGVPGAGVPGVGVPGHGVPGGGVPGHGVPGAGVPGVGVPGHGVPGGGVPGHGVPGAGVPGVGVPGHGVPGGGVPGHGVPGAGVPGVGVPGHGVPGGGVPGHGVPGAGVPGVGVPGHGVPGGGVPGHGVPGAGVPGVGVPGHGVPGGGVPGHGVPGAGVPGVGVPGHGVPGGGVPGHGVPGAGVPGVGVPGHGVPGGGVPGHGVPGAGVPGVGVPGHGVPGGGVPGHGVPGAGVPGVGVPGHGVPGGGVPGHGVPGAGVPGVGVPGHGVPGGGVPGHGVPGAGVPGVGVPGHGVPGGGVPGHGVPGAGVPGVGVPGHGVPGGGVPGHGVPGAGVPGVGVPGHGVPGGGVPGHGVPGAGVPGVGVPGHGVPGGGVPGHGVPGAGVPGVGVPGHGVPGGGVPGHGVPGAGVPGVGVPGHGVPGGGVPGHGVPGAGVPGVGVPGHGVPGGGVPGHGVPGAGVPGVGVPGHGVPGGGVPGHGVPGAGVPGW

T3: E3 ELP [(VPGXG)10-GKG]8 (synthetic construct)
T3 chain: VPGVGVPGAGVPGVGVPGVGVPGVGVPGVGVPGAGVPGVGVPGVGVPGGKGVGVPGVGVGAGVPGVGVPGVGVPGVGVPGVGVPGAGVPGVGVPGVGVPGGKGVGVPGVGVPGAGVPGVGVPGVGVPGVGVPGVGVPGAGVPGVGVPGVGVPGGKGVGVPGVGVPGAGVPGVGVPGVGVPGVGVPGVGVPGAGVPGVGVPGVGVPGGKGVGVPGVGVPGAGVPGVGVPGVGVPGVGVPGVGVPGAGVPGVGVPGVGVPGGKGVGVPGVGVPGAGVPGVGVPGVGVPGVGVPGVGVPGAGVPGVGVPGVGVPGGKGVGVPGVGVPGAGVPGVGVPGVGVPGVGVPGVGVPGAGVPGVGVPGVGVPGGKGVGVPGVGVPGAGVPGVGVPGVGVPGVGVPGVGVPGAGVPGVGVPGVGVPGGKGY


Experiments:
[1] = molecular target: T1, H-20 His-ELP; experiment: EMSA; pH 6, room temperature, 0.1-100 uM; weaker than H-24
Experimental: (§1) According to the prediction of His-ELP charge as a function of pH (FIG. 1l A), at pH 6, H-20 (SEQ. ID. NO. 8) is expected to have a charge of ≈+33 and H-24 (SEQ. ID. NO. 9) is expected to have a greater charge of ≈+39 as it has more histidines in its sequence. The primary association between His-ELPs and NAs is via electrostatic interactions; thus, the protein with greater charge is expected to have a more robust binding activity. Gel retardation assays were performed to analyze the binding activity of the His-ELPs (and another ELP with 8 cationic lysine charges, E3) with tRNA and ssDNA as a function of protein concentration at pH 6 (FIG. 12). Binding and gel electrophoresis were conducted at room temperature, below the Tt of each of the proteins, and for both tRNA and ssDNA, the degree of NA migration retardation was dependent on protein concentration (see FIG. 4).

[2] = molecular target: T2, H-24 His-ELP; experiment: EMSA; pH 6, room temperature, 0.1-100 uM
Experimental: as §1

[3] = molecular target: T3, E3 ELP [(VPGXG)10-GKG]8; experiment: coacervate partitioning at 55 C, no added NaCl, 100 mM sodium phosphate pH 7.0; 100 mM NaCl leaves much more DNA in dilute phase; details: label: 5'-Cy3
Text: Across all t=0 samples at room temperature (T<Tt) no E3 condensates are observed (FIG. 3, A1 and D1) and all solution components are miscible and evenly distributed throughout the droplet volume (FIG. 3, A2, D2, A3 and D3). The incipient stages of thermally triggered E3 phase transition occur simultaneously throughout droplet volumes, corroborating demixing through spinodal decomposition for both +NaCl and −NaCl samples (FIG. 3, B1 and E1). […] Note that the recruitment of ssDNA-Cy3 into the E3 rich condensates is E3 concentration dependent. By contrast, addition of NaCl results in electrostatic shielding, partitioning more ssDNA-Cy3 in the solvent-rich phase (FIG. 3, B2 and C2). The combined E3 phase behavior and ssDNA-Cy3 partitioning for −NaCl and +NaCl is further evidenced by inspection of the merged brightfield and fluorescence microscopy images of FIG. 3, panels A3-F3.
To image the process of temperature-mediated E3 coacervation and interaction with DNA-Cy3, an Olympus IX83 fluorescence microscope (Olympus Life Science Technology Division, Center Valley, PA) was equipped with a Physitemp cooling and heating stage (TS4-MP/ER/PTU, Clifton, NJ) fitted with a temperature controller. Microfluidic droplets were generated using previously described methods and droplet generator. […]

| Binder | binding result [1] | binding result [2] | binding result [3] |
| --- | --- | --- | --- |
| TTTTTCCTAGAGAGTAGAGCCTGCTTCG (ssDNA) [ssDNA 28 nt] | binds | binds | – |
| TTTTTCCTAGAGAGTAGAGCCTGCTTCG (ssDNA) [Cy3-ssDNA (DNA-Cy3)] | – | – | binds |
